Tests used:
[1] = biological target: Notch1 on CHO-K1 N1-Gal4 fluorescent reporter cells (UniProt P46531 19-2555, limits assumed); experiment: cell-based or functional assay
[2] = biological target: Notch1 on U2OS hNotch1-Gal4 luciferase reporter cells (human, UniProt P46531 19-2555); experiment: cell-based or functional assay
[3] = biological target: T1, hNotch4 (EGF7-12, residues 276-511), biotinylated (human, UniProt Q99466 276-511, Biotinylated in vitro by BirA at the C-terminal BAP-tag (tag not in the letters).); experiment: SPR (Biacore T200), biotinylated Notch fragment on streptavidin chip, DLL4 protein (N-EGF5) in flow, 1:1 model
T1 construct: Immobilised on a streptavidin chip for SPR; also called Notch4 (7-12)
T1 sequence: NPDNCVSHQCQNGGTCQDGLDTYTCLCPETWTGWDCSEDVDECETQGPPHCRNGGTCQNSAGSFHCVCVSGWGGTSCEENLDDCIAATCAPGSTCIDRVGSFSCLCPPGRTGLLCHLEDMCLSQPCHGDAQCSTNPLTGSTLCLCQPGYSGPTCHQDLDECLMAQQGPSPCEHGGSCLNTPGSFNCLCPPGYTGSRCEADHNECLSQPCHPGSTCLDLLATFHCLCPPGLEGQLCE
Method: (§1) The rapid dissociation of WT DLL4 precluded kinetic fitting of the binding data.
(§2) Equilibrium dissociation constants were determined by surface plasmon resonance using a Biacore T200 instrument (GE Healthcare). Approximately 100 resonance units (RU) of biotinylated Notch extracellular fragments (Notch1 (EGF6-13), Notch2 (EGF6-13), Notch3 (EGF5-12), Notch4 (7-12), and mouse Notch1 (EGF6-13)) were immobilized on individual flow cells at 5 μl/min using a streptavidin-coated sensor chip (Series S Sensor chip SA, GE Healthcare). Three-fold serial dilutions of recombinant DLL4 proteins (N-EGF5) starting at 50 μM (WT DLL4), 18 μM (DLL4.v2), and 6 μM (DLL4.v1 and Delta^MAX) were flowed over the chip at 25° C. in SPR buffer (20 mM HEPES pH 7.4, 150 mM NaCl, 1 mM calcium chloride, 0.1% BSA supplemented with 0.005% surfactant P20). Association (“on-rate”) and dissociation (“off-rate”) phases were performed at 10 μl/min for 120 seconds and 300 seconds, respectively. […] Data collection rate was performed at 10 Hz, and curves were reference-subtracted from a flow cell containing 100 RU of a negative control non-related protein (biotinylated mouse RNF43 PA domain). The maximum RU for each experiment was normalized to a value of 100% and plotted as a function of concentration using Prism 9 software (GraphPad). Steady-state binding and kinetic curves were fitted using the Biacore T200 evaluation software to a 1:1 Langmuir model to determine the KD values.

[4] = biological target: T2, hNotch2 (EGF6-13, residues 221-530), biotinylated (human, UniProt Q04721 221-530, Biotinylated in vitro by BirA at the C-terminal BAP-tag (tag not in the letters).); experiment: as above
T2 construct: Immobilised on a streptavidin chip for SPR
T2 sequence: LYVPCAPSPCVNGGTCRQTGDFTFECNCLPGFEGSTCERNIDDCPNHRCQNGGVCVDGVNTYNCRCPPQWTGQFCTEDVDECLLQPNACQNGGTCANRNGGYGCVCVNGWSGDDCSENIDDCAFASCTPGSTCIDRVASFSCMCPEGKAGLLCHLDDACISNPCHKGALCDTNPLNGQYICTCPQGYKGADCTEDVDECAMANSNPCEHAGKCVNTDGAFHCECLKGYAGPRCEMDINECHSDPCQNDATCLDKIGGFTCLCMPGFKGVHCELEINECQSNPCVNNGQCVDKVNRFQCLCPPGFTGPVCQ
Method: as §1, §2

[5] = biological target: T3, hNotch3 (EGF5-12, residues 197-505), biotinylated (human, UniProt Q9UM47 197-505, Biotinylated in vitro by BirA at the C-terminal BAP-tag (tag not in the letters).); experiment: as above
T3 construct: Immobilised on a streptavidin chip for SPR
T3 sequence: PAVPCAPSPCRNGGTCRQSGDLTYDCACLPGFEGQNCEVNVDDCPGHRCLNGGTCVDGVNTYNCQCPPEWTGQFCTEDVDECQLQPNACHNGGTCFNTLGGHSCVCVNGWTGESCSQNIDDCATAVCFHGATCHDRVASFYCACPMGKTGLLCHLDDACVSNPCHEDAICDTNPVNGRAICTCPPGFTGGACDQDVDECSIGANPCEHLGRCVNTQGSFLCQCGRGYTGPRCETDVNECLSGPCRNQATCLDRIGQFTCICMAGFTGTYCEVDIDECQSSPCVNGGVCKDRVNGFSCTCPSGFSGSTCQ
Method: as §1, §2

Sequence of Notch1 on CHO-K1 N1-Gal4 fluorescent reporter cells (P46531 19-2555 limits assumed): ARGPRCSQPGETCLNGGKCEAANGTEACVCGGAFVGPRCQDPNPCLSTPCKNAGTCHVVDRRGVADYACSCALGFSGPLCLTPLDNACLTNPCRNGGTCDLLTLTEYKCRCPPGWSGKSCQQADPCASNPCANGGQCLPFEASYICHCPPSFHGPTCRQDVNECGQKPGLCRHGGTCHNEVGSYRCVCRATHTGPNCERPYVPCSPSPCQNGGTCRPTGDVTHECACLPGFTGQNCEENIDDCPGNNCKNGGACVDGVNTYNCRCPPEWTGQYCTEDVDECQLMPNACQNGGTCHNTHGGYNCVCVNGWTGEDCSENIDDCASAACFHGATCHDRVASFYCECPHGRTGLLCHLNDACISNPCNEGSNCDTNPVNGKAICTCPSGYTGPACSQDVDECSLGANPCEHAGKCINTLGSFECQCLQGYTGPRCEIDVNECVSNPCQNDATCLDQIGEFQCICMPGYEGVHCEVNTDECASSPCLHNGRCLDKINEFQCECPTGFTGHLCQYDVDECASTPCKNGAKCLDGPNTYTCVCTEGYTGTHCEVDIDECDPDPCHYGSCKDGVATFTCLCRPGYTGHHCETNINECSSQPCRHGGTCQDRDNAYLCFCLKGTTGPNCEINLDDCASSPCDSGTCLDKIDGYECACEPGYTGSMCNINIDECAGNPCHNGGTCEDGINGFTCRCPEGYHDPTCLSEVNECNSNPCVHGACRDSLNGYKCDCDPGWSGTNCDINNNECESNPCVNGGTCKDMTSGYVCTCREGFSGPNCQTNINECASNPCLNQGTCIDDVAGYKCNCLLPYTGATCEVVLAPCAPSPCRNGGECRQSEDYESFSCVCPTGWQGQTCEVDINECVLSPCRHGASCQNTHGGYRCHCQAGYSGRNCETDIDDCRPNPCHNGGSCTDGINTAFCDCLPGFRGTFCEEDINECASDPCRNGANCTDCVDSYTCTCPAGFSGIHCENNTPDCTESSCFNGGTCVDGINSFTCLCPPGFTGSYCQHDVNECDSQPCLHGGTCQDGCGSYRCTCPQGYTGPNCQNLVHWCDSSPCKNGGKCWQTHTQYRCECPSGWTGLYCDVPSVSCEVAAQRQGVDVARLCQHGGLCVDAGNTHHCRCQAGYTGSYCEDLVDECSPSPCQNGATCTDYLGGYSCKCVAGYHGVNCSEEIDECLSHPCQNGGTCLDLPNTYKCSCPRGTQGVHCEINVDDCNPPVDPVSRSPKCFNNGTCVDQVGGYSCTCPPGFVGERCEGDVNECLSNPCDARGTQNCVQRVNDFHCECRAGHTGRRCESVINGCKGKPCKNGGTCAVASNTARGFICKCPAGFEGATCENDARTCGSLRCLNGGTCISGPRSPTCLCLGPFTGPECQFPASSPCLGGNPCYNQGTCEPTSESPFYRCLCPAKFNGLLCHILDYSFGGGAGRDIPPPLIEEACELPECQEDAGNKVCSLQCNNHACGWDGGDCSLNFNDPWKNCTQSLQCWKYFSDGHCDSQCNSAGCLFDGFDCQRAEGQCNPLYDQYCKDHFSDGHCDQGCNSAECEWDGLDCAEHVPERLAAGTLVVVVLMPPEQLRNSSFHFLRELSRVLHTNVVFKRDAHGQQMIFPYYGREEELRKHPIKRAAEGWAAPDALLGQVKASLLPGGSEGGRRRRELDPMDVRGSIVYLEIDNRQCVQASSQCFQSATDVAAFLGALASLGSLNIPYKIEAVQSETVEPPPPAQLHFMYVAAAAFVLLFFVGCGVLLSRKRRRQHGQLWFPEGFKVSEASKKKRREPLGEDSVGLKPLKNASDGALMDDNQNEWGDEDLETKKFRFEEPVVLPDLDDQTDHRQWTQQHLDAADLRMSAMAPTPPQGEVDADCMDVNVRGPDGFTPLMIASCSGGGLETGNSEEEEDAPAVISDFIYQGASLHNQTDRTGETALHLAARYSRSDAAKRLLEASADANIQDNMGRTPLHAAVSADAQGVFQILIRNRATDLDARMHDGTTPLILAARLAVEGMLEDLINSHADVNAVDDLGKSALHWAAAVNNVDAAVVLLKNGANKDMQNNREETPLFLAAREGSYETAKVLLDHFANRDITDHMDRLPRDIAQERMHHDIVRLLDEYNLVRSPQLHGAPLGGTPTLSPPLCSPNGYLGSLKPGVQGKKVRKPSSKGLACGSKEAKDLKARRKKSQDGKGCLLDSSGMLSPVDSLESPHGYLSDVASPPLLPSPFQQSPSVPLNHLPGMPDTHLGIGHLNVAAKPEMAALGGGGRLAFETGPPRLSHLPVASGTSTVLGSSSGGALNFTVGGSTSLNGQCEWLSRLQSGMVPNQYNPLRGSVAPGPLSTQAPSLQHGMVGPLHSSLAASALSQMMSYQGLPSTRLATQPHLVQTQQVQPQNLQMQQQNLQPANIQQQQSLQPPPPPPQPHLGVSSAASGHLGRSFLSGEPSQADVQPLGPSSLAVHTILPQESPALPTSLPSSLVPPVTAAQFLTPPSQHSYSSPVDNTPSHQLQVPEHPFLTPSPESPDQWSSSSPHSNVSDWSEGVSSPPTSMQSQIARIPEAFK
Sequence of Notch1 on U2OS hNotch1-Gal4 luciferase reporter cells (P46531 19-2555): as the sequence (P46531 19-2555 limits assumed) above

B1: Delta^MAX (N-EGF5), non-biotinylated (ligand)
chain: SSVFQLQLQEFINERGVLASGRPCEPGCRTFFRVCLKHFQAVVSPGPCTFGTVSTPVLGTNSFAVRDDSSGGGRNPLQLPLNFTWPGTFSLIIEAWHAPGDDLRPEALPPDALISKFAIQGSLAVGQNWLLDEQTSTLTRLRYSYRVICSDNYYGDNCSRLCKKRNDYFGHYVCQPDGNPSCLPGWTGEYCQQPICLSGCHEQNGYCSKPAECLCRPGWQGRLCNECIPHPGCRHGTCSTPWQCLCDEGWGGLYCDQDLNYCTHHSPCKNGATCRNSGPRSYTCTCRPGYTGVDCELELSECDSNPCRNGGSCKDQEDGYHCLCPPGYYGLHCEHSTLSCADSPCFNGGSCRERNQGANYACECPPNFTGSNCEHHHHHHHH
notes: also called DLL4^MAX; soluble Delta^MAX
Q: How did the “EC50 of Notch1 activation, fluorescent reporter cells, ligand non-specifically adsorbed to plates” value [1] turn out when B1 was run?
A: Its value is 0.009 ng/mm^2.

Q: What about the “IC50 of inhibition of Notch1 activation on WT DLL4-coated plates (comparison with DAPT and BB-94)” value [1] of the same binder?
A: Its value is 1 nM.

Q: And the “IC50 of inhibition of Notch1 reporter signalling in co-culture with HEK293T cells expressing WT DLL4” value [1]?
A: Its value is 400 nM.

Q: What about the “IC50 of inhibition of Notch1 reporter signalling on WT DLL4-coated plates” value [1] of the same binder?
A: Its value is 0.6 nM.

Q: And the “improvement in Notch activation efficiency against WT DLL4 (adsorbed ligand)” value [1]?
A: The value was 250 fold.

Q: What about the “increase in Notch1 activation relative to control, non-specific adsorption” value [2] of the same binder?
A: The value was 23 fold.

Q: And the Kd [3]?
A: Its Kd is 24 nM.

Q: And the Kd [4]?
A: Its Kd is 54 nM.

Q: What about the Kd [5] of the same binder?
A: The Kd was 49 nM.

Source: patent US20260055369A1 (H LEE MOFFITT CANCER CENTER AND RESEARCH INSTITUTE, published 2026)
